Laboratory results as given in patent publication US20200223906A1 (Adimab, published 2020).
Positions count from the first letter of the chain named.

B1: ADI-18907 (antibody, V domains shown)
VH: QVQLVQSGPEVKKPGSSVKVSCKASGGTFSSYAITWVRQAPGQGLEWMGGIIPSFDRVDYSRNFKGRVTFTADKSANTAYMELTNVRSDDTAVYYCARGCCGAVAGFQHWGQGTGVTVSS
VL: DIVLTQTPATLSLSPGETATLSCRASQSVTTYLAWYQQKPGQAPRLLIYDASNRATGVPTRFSGSGSGTDFTLTISSLEPEDYAIYYCQQRTTGVTFGGGTKVEIK
notes: full-length IgG from yeast; also called Antibody Number 262; Ab # 262
B2: ADI-18962 (antibody, V domains shown)
VH: QVQLVQSGGGLVKPEGSLRLSCAASGFTFSSYSMNWVRQAPGKGLEWVSSISSSSSYIYYADSVKGRFTISRDNAKNSLYLQMNSLRAEDTAVYYCARVSTELGYYYMDVWGKGTTVTVSS
VL: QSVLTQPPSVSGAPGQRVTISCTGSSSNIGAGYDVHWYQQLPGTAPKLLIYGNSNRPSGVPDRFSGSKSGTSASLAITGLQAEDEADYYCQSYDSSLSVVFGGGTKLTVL
notes: full-length IgG from yeast
B3: ADI-18910 (antibody, V domains shown)
VH: QVQLVQSGAEVKKPGSSVKVSCKASGGTFSSYAISWVRQAPGQGLEWMGGIIPMFDIVDYAQKFQGRVTITADESTNTAYMELTSLRSEDTAVYYCARTAALGPPGTIVGYMDVWGKGTTVTVSS
VL: DIVMTQSPLSLPVTPGEPASISCRSSQSLLQSNGYNYLDWYLQKPGQAPQLLIYLGSNRASGVPDKFSGSGSGTDFTLKISRVEAEDVGVYYCMQTLQTPWTFGQGTKVEIK
notes: full-length IgG from yeast; also called Antibody Number 265; Ab # 265
B4: ADI-18884 (antibody, V domains shown)
VH: EVQLVESGAEMKKPGASVKVSCKASGYTFTNYAIHWVRQAPGQSLEWMGWINAGNGNTQYSQKFQGRVTFTRDTSASTVYMDLSSLRSEDTAVYYCARGQIVVIPRANFWFDPWGQGTLVTVSS
VL: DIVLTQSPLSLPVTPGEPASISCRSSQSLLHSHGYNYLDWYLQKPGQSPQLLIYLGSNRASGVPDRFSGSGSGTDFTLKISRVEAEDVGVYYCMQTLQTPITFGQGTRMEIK
notes: full-length IgG from yeast; also called Antibody Number 240; Ab # 240
B5: ADI-18943 (antibody, V domains shown)
VH: QVQLQESGPGLVKPSETLSLTCSVSGASVTSREYYWGWIRQAPGKGLQWIASIHHSPFQSDGNPSLTSRVSSSVVTSKNQLALRLSSVTAADTAVYYCAGAFWEVWTGLYSPPFDFWGQGILVTVSS
VL: EIVMTQSPGTLSLSPGERATLSCWASQTVSSGYLAWYQQKPGQAPRLLIYGASTRATDIPDRFSGSGSGTGFTLTISRLEPEDLAVYYCQQYSSSPLTFGGGTKVEIK
notes: full-length IgG from yeast
B6: ADI-18944 (antibody, V domains shown)
VH: QVQLVQSGAEVKKPGASVKVSCKTSGYTFSNYGISWLRQAPGQGLEWMAWISPYNGNTKSAQRFQGRVIMTTDTSTRTAHMEVKSLRTDDTATYYCARDPAVDAIPMLDYWGQGTTVTVSS
VL: DIQVTQSPLSLPVTLGQPASISCRSSQSLVYTDGNTYLSWFQQRPGQSPRRLIYRVSHRDSGVPDRFTGSGSGTDFTLIIRRVEAEDVGVYYCMQGTHWPLTFGGGTKVEIK
notes: full-length IgG from yeast
B7: ADI-18949 (antibody, V domains shown)
VH: B6 VH with T116M
VL: B6 VL with D1E, Q3V, V4L
notes: full-length IgG from yeast
B8: ADI-18972 (antibody, V domains shown)
VH: B6 VH with T116L
VL: B6 VL with V4M, V109L
notes: full-length IgG from yeast; also called Antibody Number 320; Ab # 320
B9: ADI-18894 (antibody, V domains shown)
VH: QVQLVQSGGGVVQPGRSLKHSCAASGFTFNNYAIHWVRQAPGKGLEWVAAISYDGSNEYYSNSVKGRFTISRDNSKYTLYLQMNSLRPEDTAVYYCARGASYYYVSSDLGYWGQGTLVTVSS
VL: QPVLTQPPSVSGAPGQRVTISCTGSSSNIGSGYDVHWYQQLPGTAPKVVIYGNINRPSGVPERFSGSKSGTSASLAITGLQAEDEADYYCQSYDSLSASWVFGGGTKLTVL
notes: full-length IgG from yeast; also called Antibody Number 249; Ab # 249
B10: ADI-18879 (antibody, V domains shown)
VH: EVQLLESGGEVKKPGASVKVSCRASGYTFRNYGLTWVRQAPGQGLEWMGWISAYNGNTNYAQKFQGRVTLTTDTSTSTAYMELRSLRSDDTAVYFCARDVPGHGAAFMDVWGTGTTVTVSS
VL: DIQLTQSPLSLPVTLGQPASISCRSSQSLEASDTNIYLSWFQQRPGQSPRRLIYKISNRDSGVPDRFSGSGSGTHFTLRISRVEADDVAVYYCMQGTHWPPAFGQGTKVDIK
notes: full-length IgG from yeast
B11: ADI-18903 (antibody, V domains shown)
VH: B10 VH with L5V
VL: B10 VL with D1E, I2T, Q3T, V109L, D110E
notes: full-length IgG from yeast
B12: ADI-18927 (antibody, V domains shown)
VH: QVQLVQSGAEVKKPGASVKVSCKASGYTFTDYFIHWVRQAPGEGLEWMGWVNPLSDNTKYSQKFQGRVTMSTDTSITTAYMYLSRLRFDDTAVYFCASQSSPYTPGALDVWGQGTTVTVSS
VL: DIQLTQSPSSLPASVGDRVTITCRASQNIGNNLAWYQQKAGRAPKLLIYSASNFHSGVPSRFIGSGSGTVFTLTISSLQPEDFATYFCQQSFTPQFTFGPGTKVEIK
notes: full-length IgG from yeast
B13: ADI-18956 (antibody, V domains shown)
VH: QVQLVQSGAELKKPGSSVKVSCKASADTFKSYAINWVRQAPGQGLEWMGEFIPIFGVSPSAQKFQGRVTITADRSTSTAYMELSSLKSDDSAIYYCATRLYTLGSPFDNWGQGTTVTVSS
VL: QPVLTQPRSVSGSPGQSVTISCTGTSSDVGDYDYVSWYQHLPGEVPKLIVYNVIKRPSGVPDRFSGSKSGNTASLTISGLQAEDEADYYCCSYAGRYIYVFGSGTKLTVL
notes: full-length IgG from yeast
B14: ADI-18957 (antibody, V domains shown)
VH: EVQLLESGGGLVKPGESLRLSCAASGFTLSGYYMNWVRQAPGRGLEWVSSISGGSNYINYADSVKGRFTISRDNAKNSLYLQMNSLRVEDTAVYYCARVHVDLVTTIFGVDFDFWGQGTLVTVSS
VL: QSVLTQPPSVSGAPGQRVTISCTGSSSNIGAGYDVHWYQQLPGTAPKLLIYGNTNRPAGVPDRFSGSKSGSSASLAITGLQAEDEADYYCQSYDSSLSGAIFGGGTKLTVL
notes: full-length IgG from yeast
B15: ADI-18875 (antibody, V domains shown)
VH: QVQLQQWGAGLLKPSETLSLTCAVYGGSFSGYSWSWIRQTPGKGLEWIGEINHRGSTNYNPSLKSRVTMSVDTSQNQISLRVTSVTAADTAVYFCAGTNYGEVNTSNQYFFGMDVWGQGTTVTVSS
VL: DIQVTQSPSSLSASVGDRVTITCRASQSIGTYLNWYQQKPGKPPKLLIYAASNLESGVPSSFSGSGSGTHFTLTISSLQPEHFATYYCQQSYSTPLTFGGGTKVEIK
notes: full-length IgG from yeast; also called Antibody Number 232; Ab # 232
B16: ADI-18967 (antibody, V domains shown)
VH: QVQLVQSGAEVKKPGASVKVACKVSGSSLTELSIQWVRLPPGKRLEWLGAFDAEDGAPIYSPKFQGRVTMTEDRSTETAYMEVTSLRSEDTALYYCATPLPAGALDKWGQGTLVTVSS
VL: DIQMTQSPSSLSASVGDRVTISCRASQTISRYLNWYQVKPGTAPKLLIYAASSLQTGVPSRFSASGSGADFTLTISSLQPEDFATYHCQQTYIIPYTFGQGTKVDIK
notes: full-length IgG from yeast; also called Antibody Number 315; Ab # 315
B17: ADI-18959 (antibody, V domains shown)
VH: QVQLVQSGAEVKKPGASVRVSCKVYGHTLSELSMHWVRQGPEGGLEWMGAFDHEDGEGIYPQKFQGRITMTADISTDTAHMELRSLRSEDTAVYYCATPTPVGATDFWGQGTLVTVSS
VL: DIRVTQSPSSLSASVGDRVTITCRASQSISSYLNWYQQKPGKAPKLLIYAASTLQRGGPSRFSGSGSGTDFTLSISSLQPEDFATYYCQQTYIIPYTFGQGTKLEIK
notes: full-length IgG from yeast; also called Antibody Number 310; Ab # 310
B18: ADI-18921 (antibody, V domains shown)
VH: QVQLVQSGSEVKKPGASVRLSCKVAGYSLSELSMHWVRQSPGKGLEWLGAFDHEDAEAIYAPRFQGRITMTADTSTDTAYMELSSLRSEDTAVYYCATPTPVGATDYWGQGTLVTVSS
VL: B17 VL with R3Q, V4M, T53S, S74T, T91S, L104V, E105D
notes: full-length IgG from yeast

Columns and labels:
[1] = molecular target: RSV F protein of subtype A (strain A2) on recombinant mKate-RSV virus (Respiratory syncytial virus subtype A …, UniProt P03420 26-574); assay: cell-based or functional assay
[2] = molecular target: RSV F protein of subtype B (18537) on recombinant mKate-RSV virus (Respiratory syncytial virus subtype B …, UniProt P13843 26-574); assay: cell-based or functional assay
[3] = molecular target: T1, RSV F subtype B, furin-cleaved ectodomain stabilized in the prefusion conformation (DS-Cav1) (Respiratory syncytial virus subtype B); assay: BLI, IgG on AHQ sensor, 100 nM antigen
T1 construct: extracellular domain; Trimeric soluble antigen; also called Prefusion subtype B

[4] = molecular target: T2, RSV F subtype A, furin-cleaved ectodomain stabilized in the prefusion conformation (DS-Cav1) (Respiratory syncytial virus subtype A, UniProt P03420 26-524); assay: BLI, IgG on AHQ sensor, 100 nM antigen
T2 construct: extracellular domain; Trimeric soluble antigen; also called Prefusion subtype A

Row | Binder | Neut IC50 (µg/ml) subtype A [1] [µg/mL] | Neut IC50 (µg/ml) subtype B [2] [µg/mL] | Kd [3] [nM] | Kd [4] [nM]
1 | B1 | 3.3 | > 10 | 0.204 | 
2 | B2 | 4.44 | > 10 | 22.8 | 
3 | B3 | > 10 | 0.767 | 10.6 | 
4 | B4 | 0.073 | 0.239 | 0.204 | 
5 | B5 | 0.027 | 0.043 | 0.725 | 
6 | B6 | 0.026 | 0.074 | 0.337 | 
7 | B7 | 0.04 | 0.076 | 0.308 | 
8 | B8 | 0.016 | 0.107 | 0.368 | 
9 | B9 | 0.345 | 0.123 | 0.327 | 
10 | B10 | 0.041 | 0.103 | 0.358 | 0.312
11 | B11 | 0.036 | 0.118 | 0.272 | 0.324
12 | B12 | 0.022 | 0.067 | 2.99 | 3.58
13 | B13 | > 10 | > 10 | 0.224 | 
14 | B14 | 1.34 | 6.08 | 0.324 | 
15 | B15 | 0.04 | 0.035 | 0.764 | 0.736
16 | B16 | 6.74 | 3.65 |  | 0.809
17 | B17 | 7.21 | 2.26 |  | 4.68
18 | B18 | 1.7 | 1.17 |  | 5.75
